From patent US20160347808A1 (IMMATICS BIOTECHNOLOGIES, published 2016)

Target: T1, HLA-A*02:01 (peptide-receptive MHC class I monomer from UV-ligand exchange) (human)
T1 construct: Monomers were captured on streptavidin-coated plates
Assay: UV-exchange ELISA (anti-b2m); exchange yield grade: + >=10%, ++ >=20%, +++ >=50%, ++++ >=75%
Excerpt: Candidate peptides for T cell based therapies according to the present invention were further tested for their MHC binding capacity (affinity). The individual peptide-MHC complexes were produced by UV-ligand exchange, where a UV-sensitive peptide is cleaved upon UV-irradiation, and exchanged with the peptide of interest as analyzed. Only peptide candidates that can effectively bind and stabilize the peptide-receptive MHC molecules prevent dissociation of the MHC complexes. To determine the yield of the exchange reaction, an ELISA was performed based on the detection of the light chain (β2m) of stabilized MHC complexes. The assay was performed as generally described in Rodenko et al. (Rodenko et al., 2006).
96 well MAXISorp plates (NUNC) were coated over night with 2 ug/ml streptavidin in PBS at room temperature, washed 4× and blocked for 1 h at 37° C. in 2% BSA containing blocking buffer. Refolded HLA-A*02:01/MLA-001 monomers served as standards, covering the range of 15-500 ng/ml. Peptide-MHC monomers of the UV-exchange reaction were diluted 100 fold in blocking buffer. Samples were incubated for 1 h at 37° C., washed four times, incubated with 2 ug/ml HRP conjugated anti-β2m for 1 h at 37° C., washed again and detected with TMB solution that is stopped with […]. Absorption was measured at 450 nm. Candidate peptides that show a high exchange yield (preferably higher than 50%, most preferred higher than 75%) are generally preferred for a generation and production of antibodies or fragments thereof, and/or T cell receptors or fragments thereof, as they show sufficient avidity to the MHC molecules and prevent dissociation of the MHC complexes.

| Binder | peptide exchange yield |
| --- | --- |
| TLQPVDNSTISL [peptide TLQPVDNSTISL (SEQ ID NO 117)] | 20 to 50% |
| SLISEKILL [peptide SLISEKILL (SEQ ID NO 106)] | 50 to 75% |
| SLAELVPGVGGI [peptide SLAELVPGVGGI (SEQ ID NO 108)] | 50 to 75% |
| ALIKQLFEA (also called ZNF-002) [peptide ALIKQLFEA (SEQ ID NO 1)] | 50 to 75% |
| RLAELTVDEFLA [peptide RLAELTVDEFLA (SEQ ID NO 127)] | 50 to 75% |
| ILLTIKDDTIYL [peptide ILLTIKDDTIYL (SEQ ID NO 104)] | 50 to 75% |
| RLLENMTEVV [peptide RLLENMTEVV (SEQ ID NO 148)] | 50 to 75% |
| LLGELPRLLLL [peptide LLGELPRLLLL (SEQ ID NO 110)] | 50 to 75% |
| SLFDVSHML [peptide SLFDVSHML (SEQ ID NO 115)] | 50 to 75% |
| ALVQGILERV [peptide ALVQGILERV (SEQ ID NO 12)] | 50 to 75% |
| QLTEIKPLL [peptide QLTEIKPLL (SEQ ID NO 137)] | 50 to 75% |
| TLAKYLMEL [peptide TLAKYLMEL (SEQ ID NO 126)] | 50 to 75% |
| GVAGGSILKGV [peptide GVAGGSILKGV (SEQ ID NO 134)] | ≥ 75% |
| ILYQTVTGL [peptide ILYQTVTGL (SEQ ID NO 119)] | 20 to 50% |
| KLLEFDQLQL [peptide KLLEFDQLQL (SEQ ID NO 160)] | 50 to 75% |
| LQLDKEFQL [peptide LQLDKEFQL (SEQ ID NO 15)] | 50 to 75% |
| LLNDRIWLA [peptide LLNDRIWLA (SEQ ID NO 144)] | 50 to 75% |
| ALDGDQMEL [peptide ALDGDQMEL (SEQ ID NO 109)] | 20 to 50% |
| SLVQRVETI (also called ECT2-001) [peptide SLVQRVETI (SEQ ID NO 142)] | 50 to 75% |
| LVYQFVHPI [peptide LVYQFVHPI (SEQ ID NO 116)] | 20 to 50% |
| TLTELRAFL [peptide TLTELRAFL (SEQ ID NO 147)] | ≥ 75% |
| KTLERSYLL [peptide KTLERSYLL (SEQ ID NO 123)] | 20 to 50% |

| Binder | peptide exchange yield |
| --- | --- |
| RVLPPSALQSV [peptide RVLPPSALQSV (SEQ ID NO 124)] | 50 to 75% |
| YALDLSTFL [peptide YALDLSTFL (SEQ ID NO 105)] | 50 to 75% |
| LLADLKTMV [peptide LLADLKTMV (SEQ ID NO 118)] | 50 to 75% |
| FLDKPEDVLL [peptide FLDKPEDVLL (SEQ ID NO 14)] | 20 to 50% |
| KLQEEIPVL [peptide KLQEEIPVL (SEQ ID NO 135)] | 20 to 50% |
| VLLNEILEQV [peptide VLLNEILEQV (SEQ ID NO 139)] | 50 to 75% |
| SAQGSDVSLTACKV [peptide SAQGSDVSLTACKV (SEQ ID NO 151)] | 50 to 75% |
| SLMGMVLKL [peptide SLMGMVLKL (SEQ ID NO 122)] | 50 to 75% |
| KLGDFGLLVEL [peptide KLGDFGLLVEL (SEQ ID NO 125)] | ≥ 75% |
| VLVDDDGIKVV [peptide VLVDDDGIKVV (SEQ ID NO 159)] | 20 to 50% |
| ILYDLQQNL [peptide ILYDLQQNL (SEQ ID NO 113)] | 20 to 50% |
| RLLHEVQEL [peptide RLLHEVQEL (SEQ ID NO 163)] | 50 to 75% |
| KLPSETIFVGC [peptide KLPSETIFVGC (SEQ ID NO 154)] | 50 to 75% |
| KLLAVIHEL (also called RAD54B-002) [peptide KLLAVIHEL (SEQ ID NO 152)] | 20 to 50% |
| GLLDPSVFHV [peptide GLLDPSVFHV (SEQ ID NO 158)] | 50 to 75% |
| SLAPNIISQL [peptide SLAPNIISQL (SEQ ID NO 121)] | 50 to 75% |
| ILFSEDSTKLFV [peptide ILFSEDSTKLFV (SEQ ID NO 153)] | 50 to 75% |
| RTFEKIEEV [peptide RTFEKIEEV (SEQ ID NO 133)] | 20 to 50% |
| RMYNKIFAI [peptide RMYNKIFAI (SEQ ID NO 10)] | 50 to 75% |
| YLFEKTFNM [peptide YLFEKTFNM (SEQ ID NO 11)] | 50 to 75% |
| KLMDYIDEL [peptide KLMDYIDEL (SEQ ID NO 162)] | 50 to 75% |
| LLNEILEQV [peptide LLNEILEQV (SEQ ID NO 140)] | 50 to 75% |

| Binder | peptide exchange yield |
| --- | --- |
| ALLGGGPYML [peptide ALLGGGPYML (SEQ ID NO 107)] | 50 to 75% |
| KQFEGTVEI [peptide KQFEGTVEI (SEQ ID NO 138)] | 50 to 75% |
| GLGGSQLIDTHL [peptide GLGGSQLIDTHL (SEQ ID NO 130)] | 20 to 50% |
| FLLAEDTKV [peptide FLLAEDTKV (SEQ ID NO 13)] | 50 to 75% |
| KLFDIFSQQV [peptide KLFDIFSQQV (SEQ ID NO 136)] | 50 to 75% |
| VLIDVLKEL [peptide VLIDVLKEL (SEQ ID NO 129)] | 50 to 75% |
| RLLGEEVVRV [peptide RLLGEEVVRV (SEQ ID NO 155)] | 50 to 75% |
| FLKNELDNV [peptide FLKNELDNV (SEQ ID NO 161)] | 50 to 75% |
| AVIEHLERL [peptide AVIEHLERL (SEQ ID NO 141)] | ≥ 75% |
| KLGQVLIYL [peptide KLGQVLIYL (SEQ ID NO 112)] | 20 to 50% |
| LLLEVVKQV [peptide LLLEVVKQV (SEQ ID NO 145)] | 50 to 75% |
| VLYEGVDEV [peptide VLYEGVDEV (SEQ ID NO 120)] | 20 to 50% |
| TAVGHALVL [peptide TAVGHALVL (SEQ ID NO 114)] | 10 to 20% |
| YQFDKVGILTL [peptide YQFDKVGILTL (SEQ ID NO 149)] | 50 to 75% |
| SLIERDLKL [peptide SLIERDLKL (SEQ ID NO 157)] | 50 to 75% |
| KLLDVVHPA [peptide KLLDVVHPA (SEQ ID NO 131)] | 20 to 50% |
| ALSDETWGL [peptide ALSDETWGL (SEQ ID NO 146)] | 20 to 50% |
| KLSDVWKEL [peptide KLSDVWKEL (SEQ ID NO 143)] | 50 to 75% |
| ALLNAILHSA [peptide ALLNAILHSA (SEQ ID NO 132)] | 50 to 75% |
| MLDDRAYLV [peptide MLDDRAYLV (SEQ ID NO 128)] | 20 to 50% |
| SLMMTIINL [peptide SLMMTIINL (SEQ ID NO 156)] | ≥ 75% |
| RLADLEALKV [peptide RLADLEALKV (SEQ ID NO 150)] | 50 to 75% |
